For 1 substance, MBC (minimum bacteriocidal concentration) on ampicillin, fold over the α-Jun negative control results are on record in patent US20110287963A1.

The target of test [1] is GCN4-PP, double proline mutant of the GCN4 leucine zipper, fused to the α fragment of β-lactamase (E. coli (plasmid pBR322)) (UniProt P03069). As to the kind of experiment: cell-based or functional assay.
Test [2] addresses GCN4 leucine zipper (wild-type) fused to the α fragment of β-lactamase (E. coli (plasmid pBR322)) (UniProt P03069). As to the kind of experiment: cell-based or functional assay.

Regarding “scFv-GCN4 fused to the ω fragment of β-lactamase (pDMB-P1-ωBLA construct)”, the MBC (minimum bacteriocidal concentration) on ampicillin, fold over the α-Jun negative control was 16 fold in test [1] and 2 fold in test [2].
